Measured values taken from patent EP4682170A1.
pKd: −log10 of the molar value.

Key:
[1] = target: human CD3 on T cells of human peripheral blood mononuclear cells (human) (UniProt P07766); assay: cell-based or functional assay
[2] = target: human CD3εδ (human) (UniProt P07766); assay: SPR, Biacore T200; ratio between the KD values on CD3εδ and CD3εγ
[3] = target: human CD3εγ (human) (UniProt P07766); assay: SPR, Biacore T200; human CD3εγ immobilised on CM5 chip, antibody as analyte
[4] = target: human CD3εδ (human) (UniProt P07766); assay: SPR, Biacore T200; human CD3εδ immobilised on CM5 chip, antibody as analyte
[5] = target: human CD3εδ (human) (UniProt P07766); assay: SPR, Biacore T200; human CD3εδ immobilised on CM5 chip, antibody as analyte (Example 2-3)

human CD3εδ (human), sequence (P07766 23-126, stated change not applied, chain 1 of 2): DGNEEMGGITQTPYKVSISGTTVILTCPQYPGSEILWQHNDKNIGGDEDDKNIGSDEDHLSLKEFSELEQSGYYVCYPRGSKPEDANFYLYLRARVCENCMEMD
human CD3εδ (human), sequence (P04234 22-105, stated change not applied, chain 2 of 2, further chain): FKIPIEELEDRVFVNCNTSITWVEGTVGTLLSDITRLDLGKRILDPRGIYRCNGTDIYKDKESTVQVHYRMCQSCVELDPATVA
human CD3 on T cells of human peripheral blood mononuclear cells (human), sequence (P07766 23-207, chain 1 of 3): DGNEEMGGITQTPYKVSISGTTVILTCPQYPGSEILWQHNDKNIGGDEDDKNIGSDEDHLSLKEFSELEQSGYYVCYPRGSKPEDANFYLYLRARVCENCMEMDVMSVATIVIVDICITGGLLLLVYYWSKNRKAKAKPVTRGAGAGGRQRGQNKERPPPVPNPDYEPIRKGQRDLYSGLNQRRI
human CD3 on T cells of human peripheral blood mononuclear cells (human), sequence (P04234 22-171, chain 2 of 3, further chain): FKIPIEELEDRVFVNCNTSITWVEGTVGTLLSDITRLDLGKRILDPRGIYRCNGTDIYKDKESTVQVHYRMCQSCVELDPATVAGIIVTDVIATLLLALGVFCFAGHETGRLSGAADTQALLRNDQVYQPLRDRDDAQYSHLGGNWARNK
human CD3 on T cells of human peripheral blood mononuclear cells (human), sequence (P09693 23-182, chain 3 of 3, further chain): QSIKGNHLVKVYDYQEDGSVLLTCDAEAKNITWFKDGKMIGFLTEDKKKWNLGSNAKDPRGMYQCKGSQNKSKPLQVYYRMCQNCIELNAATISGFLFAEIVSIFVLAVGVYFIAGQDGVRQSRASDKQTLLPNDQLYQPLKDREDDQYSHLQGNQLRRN
human CD3εγ (human), sequence (P07766 23-126, chain 1 of 2): as the sequence (P07766 23-126, stated change not applied, chain 1 of 2) above
human CD3εγ (human), sequence (P09693 23-116, chain 2 of 2, further chain): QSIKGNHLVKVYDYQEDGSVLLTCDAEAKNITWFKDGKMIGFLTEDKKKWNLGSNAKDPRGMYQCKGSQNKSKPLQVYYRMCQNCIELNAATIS

Question: With CD3 (UCHT1)-binding monoclonal antibody as the substance, how does the Death of cancer cells, EC50 nM (MDA-MB-231 + human PBMC, 48 h) [1] read?
Answer: The Death of cancer cells, EC50 nM (MDA-MB-231 + human PBMC, 48 h) was 0.0005 nM.

Question: And the Death of cancer cells, Emax (%) [1]?
Answer: Its Death of cancer cells, Emax (%) is 46%.

Question: And the IFNγ release, EC50 nM [1]?
Answer: The IFNγ release, EC50 nM was 0.003 nM.

Question: What about the IFNγ release, Maximum concentration [1] of the same substance?
Answer: Its IFNγ release, Maximum concentration is 16 ng/mL.

Question: What about the T cell activation (CD3+ CD8+ CD69+), human PBMC alone without target cells [1] of the same substance?
Answer: Its T cell activation (CD3+ CD8+ CD69+), human PBMC alone without target cells is 60%.

Question: And the ratio of the binding strength to CD3εδ / binding strength to CD3εγ [2]?
Answer: The ratio of the binding strength to CD3εδ / binding strength to CD3εγ was 19.3 fold.

Question: And the pKd [3]?
Answer: Its pKd is 9.57.

Question: What about the pKd [4] of the same substance?
Answer: The pKd was 10.85.

Question: And the pKd [5]?
Answer: The pKd was 10.47.
